According to publication PMC4017094, “Mouse SLX4 Is a Tumor Suppressor that Stimulates the Activity of the Nuclease XPF-ERCC1 in DNA Crosslink Repair” (Molecular Cell, 2014):
Blank lines part the entries; values can stand above or below the binder they belong to.

How the values were obtained:
[1] = biological target: T1, XPF-ERCC1 nuclease (XE), recombinant (UniProt Q9QZD4 1-917; P07903 1-298); experiment: cell-based or functional assay
T1 sequence (looked up) 1: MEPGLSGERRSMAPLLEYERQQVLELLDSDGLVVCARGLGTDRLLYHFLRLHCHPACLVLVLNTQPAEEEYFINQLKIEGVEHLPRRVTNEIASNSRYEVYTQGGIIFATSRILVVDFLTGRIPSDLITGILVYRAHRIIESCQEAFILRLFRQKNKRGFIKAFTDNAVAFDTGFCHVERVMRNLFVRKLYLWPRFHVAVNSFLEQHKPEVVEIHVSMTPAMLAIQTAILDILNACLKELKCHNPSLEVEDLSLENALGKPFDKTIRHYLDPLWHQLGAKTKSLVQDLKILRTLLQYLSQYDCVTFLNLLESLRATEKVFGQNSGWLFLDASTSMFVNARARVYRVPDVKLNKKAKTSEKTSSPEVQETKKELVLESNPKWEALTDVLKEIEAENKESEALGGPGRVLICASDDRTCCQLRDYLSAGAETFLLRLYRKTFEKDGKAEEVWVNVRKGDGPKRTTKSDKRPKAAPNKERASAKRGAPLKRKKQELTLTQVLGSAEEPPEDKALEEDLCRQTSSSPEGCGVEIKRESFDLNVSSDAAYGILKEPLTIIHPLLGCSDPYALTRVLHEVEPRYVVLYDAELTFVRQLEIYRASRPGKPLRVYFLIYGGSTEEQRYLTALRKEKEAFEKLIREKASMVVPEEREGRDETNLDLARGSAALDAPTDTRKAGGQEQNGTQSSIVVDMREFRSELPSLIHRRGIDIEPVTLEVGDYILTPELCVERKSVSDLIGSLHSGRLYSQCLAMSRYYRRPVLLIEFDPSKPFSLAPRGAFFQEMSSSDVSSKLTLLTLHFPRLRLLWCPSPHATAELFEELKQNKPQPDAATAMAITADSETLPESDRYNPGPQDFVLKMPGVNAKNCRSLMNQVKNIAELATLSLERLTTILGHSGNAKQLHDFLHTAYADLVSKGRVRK
T1 sequence (looked up) 2: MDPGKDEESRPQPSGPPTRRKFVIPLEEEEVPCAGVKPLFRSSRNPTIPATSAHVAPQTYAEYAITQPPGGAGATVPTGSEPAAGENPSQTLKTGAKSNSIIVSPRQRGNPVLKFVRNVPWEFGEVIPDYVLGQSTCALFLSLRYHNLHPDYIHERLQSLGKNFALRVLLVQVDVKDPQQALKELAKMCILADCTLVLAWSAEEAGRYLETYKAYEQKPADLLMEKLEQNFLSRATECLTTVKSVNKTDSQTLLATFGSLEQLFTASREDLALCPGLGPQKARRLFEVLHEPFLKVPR

[2] = biological target: T1, XPF-ERCC1 nuclease (XE), recombinant; experiment: SEC-MALS; light-scattering analysis of the purified SXE complex (Figure S1F); conditions: both partners purified
[3] = biological target: the molecule itself; experiment: as above

- incision rate on the interstrand crosslink (ICL) fork substrate, SXE against XE (5 nM enzyme) [1]: 110 fold
- nuclease rate on the bubble substrate, SXE against XE (5 nM enzyme) [1]: 3.5 fold
- nuclease rate on the fork substrate Y11, SXE against XE (5 nM enzyme) [1]: 16 fold
- nuclease rate on the long stem-loop substrate, SXE against XE (5 nM enzyme) [1]: 3.7 fold
- stoichiometry N [2]: 1
B1: Recombinant mini-SLX4 (1-758) (domain or fragment, mouse, UniProt Q6P1D7 1-758, looked up)
chain: MVPESAPNGNSQPLPSCFTTTGVPSPSKPRVSELVLQRMKQFKRADPERLRHASEESPQKTALGDDVPRSPPEETVGENEYKLDATDSDAAMALALQQEFRREEASSHHDSLEEKGLFFCQMCQKNLSAMNVTRREQHVNRCLDEAEKAQRPASPRIPDCPICGKPFLTTKSRISHLKQCAVRMEVGPQLLLQAVRLQTAQPEVDGSPQVPSFSNNVGGLKRKGVTTKREPRRRKVNKPEAPSEDLLVAMALSRSEVEHCPVVPPLRLENAFSEKIRLGAEKKSRKKRPPVCPPQLVTQDSETTGRQIEDRVAQLLSEEAELSCTPPLLASKISKEELEPAGWRARLPEGKRNFLWELSALTGAWAEESFYTVGLFPPIVSQCPSKEPQLPLELPKQGEPSPRRPPASQSSLPVSHSPKIRLLSSSQRERQALQDLVDLAVEGLSSSPQPGSRGVPTGLDLVPSSLPLTGFVLPCKKTLKKDDSASLSLGLLVTDFGAMVNNPHLSDVQFQLDSGEVLYAHKFVLYARCPLLIQYVSTESFSSEEDGDLTQRALLSDVSSEAAHAFLNYLYMADTDMPPSLVPDLRSLALRFGVSDLVQLCEQVPAVVDLEGEQPEETSEDCESRAETFLELLRSVWVDNEEEVETLLKPELCEEERERVNEAEMEEIYEFAATQRKLLQWGRAADPDGSTNPHGEDGAVSEPSLAGVQSNRQLENTEHMESSGLEKEEALASWEQEGHSTPLQDQCPDWAGKAEAQD
notes: mouse SLX4, residues 1-758; source: insect cells, purified (in complex with XPF-ERCC1, or alone)

B2: mini-SLX4-XPF-ERCC1 (SXE) complex (complex)
chain 1: B1 chain
chain 2: T1 sequence (looked up) 1
chain 3: T1 sequence (looked up) 2
notes: mouse SLX4, residues 1-758; XPF, wild type; ERCC1; 430 kDa by light scattering; also called WT SXE; source: insect cells, purified; copies: 2 + 2 + 2
- stoichiometry N [3]: 2
